Measured values: paper PMC10267678 (2023)

How the values were obtained:
[1] = molecular target: T1, full-length human TNC protein (human, UniProt P24821 23-2201); test: BLI
[2] = molecular target: T1, full-length human TNC protein; test: BLI; remark: listed apart in the source

T1 sequence (P24821 23-2201): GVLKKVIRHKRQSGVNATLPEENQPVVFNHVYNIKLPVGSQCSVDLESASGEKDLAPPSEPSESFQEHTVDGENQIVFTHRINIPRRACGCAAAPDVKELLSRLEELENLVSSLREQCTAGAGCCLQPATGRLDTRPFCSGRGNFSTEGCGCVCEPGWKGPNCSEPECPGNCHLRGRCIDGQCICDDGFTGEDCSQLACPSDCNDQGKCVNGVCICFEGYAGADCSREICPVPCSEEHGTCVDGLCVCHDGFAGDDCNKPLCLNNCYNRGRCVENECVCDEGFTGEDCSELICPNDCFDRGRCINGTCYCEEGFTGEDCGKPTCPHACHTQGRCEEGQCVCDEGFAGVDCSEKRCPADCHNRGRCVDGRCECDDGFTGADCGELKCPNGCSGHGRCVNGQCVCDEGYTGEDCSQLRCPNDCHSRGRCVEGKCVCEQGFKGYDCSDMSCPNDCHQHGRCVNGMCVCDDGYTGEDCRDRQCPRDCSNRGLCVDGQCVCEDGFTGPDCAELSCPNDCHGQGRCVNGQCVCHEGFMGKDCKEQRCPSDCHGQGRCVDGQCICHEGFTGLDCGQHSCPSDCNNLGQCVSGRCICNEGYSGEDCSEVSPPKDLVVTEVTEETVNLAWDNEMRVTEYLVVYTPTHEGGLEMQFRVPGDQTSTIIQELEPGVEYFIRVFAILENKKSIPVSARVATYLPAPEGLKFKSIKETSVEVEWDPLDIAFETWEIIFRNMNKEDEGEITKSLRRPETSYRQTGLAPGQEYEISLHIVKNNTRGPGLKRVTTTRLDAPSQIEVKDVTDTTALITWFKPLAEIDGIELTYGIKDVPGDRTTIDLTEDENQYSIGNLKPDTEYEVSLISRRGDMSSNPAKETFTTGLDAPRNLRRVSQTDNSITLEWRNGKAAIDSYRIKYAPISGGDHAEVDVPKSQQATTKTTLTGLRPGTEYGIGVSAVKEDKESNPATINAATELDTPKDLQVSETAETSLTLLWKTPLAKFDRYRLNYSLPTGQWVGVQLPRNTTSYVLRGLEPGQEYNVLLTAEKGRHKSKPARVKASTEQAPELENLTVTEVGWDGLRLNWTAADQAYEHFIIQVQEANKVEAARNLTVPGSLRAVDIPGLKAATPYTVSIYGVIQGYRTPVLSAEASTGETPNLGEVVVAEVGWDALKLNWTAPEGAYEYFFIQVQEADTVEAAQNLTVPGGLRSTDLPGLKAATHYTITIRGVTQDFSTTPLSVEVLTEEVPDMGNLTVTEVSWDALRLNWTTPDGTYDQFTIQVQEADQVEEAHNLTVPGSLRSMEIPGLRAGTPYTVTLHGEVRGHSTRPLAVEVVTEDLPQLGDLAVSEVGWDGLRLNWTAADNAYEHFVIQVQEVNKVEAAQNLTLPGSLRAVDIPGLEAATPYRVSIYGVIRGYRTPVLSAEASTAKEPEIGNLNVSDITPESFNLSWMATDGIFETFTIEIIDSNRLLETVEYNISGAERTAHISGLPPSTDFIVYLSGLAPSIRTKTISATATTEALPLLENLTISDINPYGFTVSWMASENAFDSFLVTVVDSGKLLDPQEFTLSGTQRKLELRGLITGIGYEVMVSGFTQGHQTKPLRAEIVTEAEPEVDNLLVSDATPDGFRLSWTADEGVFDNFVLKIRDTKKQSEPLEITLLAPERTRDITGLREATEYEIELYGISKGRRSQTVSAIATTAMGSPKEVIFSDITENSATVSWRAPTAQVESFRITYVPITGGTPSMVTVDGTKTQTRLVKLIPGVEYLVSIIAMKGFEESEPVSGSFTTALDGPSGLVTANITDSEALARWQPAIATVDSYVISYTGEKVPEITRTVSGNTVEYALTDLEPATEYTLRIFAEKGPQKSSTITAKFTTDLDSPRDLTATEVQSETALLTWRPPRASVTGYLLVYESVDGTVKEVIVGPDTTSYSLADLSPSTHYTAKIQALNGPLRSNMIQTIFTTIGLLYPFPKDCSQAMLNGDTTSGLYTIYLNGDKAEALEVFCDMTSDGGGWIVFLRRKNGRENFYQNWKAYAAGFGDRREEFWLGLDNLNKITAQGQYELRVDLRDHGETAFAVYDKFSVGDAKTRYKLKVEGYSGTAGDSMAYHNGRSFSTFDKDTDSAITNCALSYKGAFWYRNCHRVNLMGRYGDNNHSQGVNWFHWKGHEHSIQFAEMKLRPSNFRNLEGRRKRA

Row | koff [1] | Kd [2] | Binder
1 | 2.35e-07 s⁻¹ | 1.47 pM | NJT3 (VHH, biotin (BLI, IHC) or Alexa-647 (two-photon imaging) added at the C-terminus by sortase-mediated tagging) VHH: QVQLVETGGGLAQAGGSLRLSCAASGRTLSGYAMGWFRQAPGKEREFVAAISWSGRNTYYDYTVQGRFTISKDNAKNTVNLQMNSLKPEDTAVYYCAVSRSLDEFGDGYEMDYWGDGTQVTVSS
2 | < 1e-07 s⁻¹ | < 1 pM | NJT4 (VHH, biotin (BLI, IHC) or Alexa-647 (two-photon imaging) added at the C-terminus by sortase-mediated tagging) VHH: QVQLVESGGGLVQPGGSLRLSCAASGFTFSSYTMRWYRQAPGKERELVAFIGVAGGSTKYADSVKGRFTISRDNTKNTVYLQMNTLKPEDTAVYYCYAPLTPYWGQGTQVTVSS
3 | < 1e-07 s⁻¹ | < 1 pM | NJT6 (VHH, biotin (BLI, IHC) or Alexa-647 (two-photon imaging) added at the C-terminus by sortase-mediated tagging) VHH: QVQLVETGGDLVQPGGSLRLSCAASGLTLDYYAIGWVRQAPGKEREGVSCITPQDGNTYYDDSVMGRFTILRDNAKNMVYLQMNNLKPEDTAVYFCAAAGALTLDPSEYEYWGQGTQVTVSS
